Source: patent publication US20050260634A1

How the values were obtained:
c-Myc [1] = target: c-Myc (UniProt P01106); experiment: flow cytometry, fixed and permeabilized JEG3 cells, negative control
c-Myc [2] = target: c-Myc (UniProt P01106); experiment: flow cytometry, fixed and permeabilized HCT15 cells, negative control
c-Myc [3] = target: c-Myc (UniProt P01106); experiment: flow cytometry, fixed and permeabilized HCT116 cells, negative control (row shifted one column to the left)

Sequence of UniProt P01106 (P01106 whole entry): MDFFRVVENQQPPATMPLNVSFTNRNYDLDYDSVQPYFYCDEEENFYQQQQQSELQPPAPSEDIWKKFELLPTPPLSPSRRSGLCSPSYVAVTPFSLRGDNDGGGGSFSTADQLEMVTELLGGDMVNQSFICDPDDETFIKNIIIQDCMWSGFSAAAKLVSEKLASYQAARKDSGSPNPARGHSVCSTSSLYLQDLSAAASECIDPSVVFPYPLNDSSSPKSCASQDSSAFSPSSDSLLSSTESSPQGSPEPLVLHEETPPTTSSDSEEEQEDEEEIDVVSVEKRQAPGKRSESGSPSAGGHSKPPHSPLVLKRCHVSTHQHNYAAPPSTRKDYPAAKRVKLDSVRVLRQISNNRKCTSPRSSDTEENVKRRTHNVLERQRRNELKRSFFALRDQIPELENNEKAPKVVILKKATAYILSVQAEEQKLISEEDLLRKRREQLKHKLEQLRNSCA

percentage of positive cells above the flow cytometry threshold (c-Myc [1]): 1.1%
percentage of positive cells above the flow cytometry threshold (c-Myc [2]): 1.6%
percentage of positive cells above the flow cytometry threshold (c-Myc [3]): 1.5%
Substance: non-immunized rabbit immunoglobulins (antibody)
